We go through seven molecules from article PMC4355076 (Molecular cell, 2015).

One may read the Kd as the free concentration of one partner at which half of the binding sites on the other are occupied at equilibrium, for simple one-to-one binding. Higher therefore signals a looser complex.

Data set [1] concerns the molecule itself. Nature of the data set: AUC.
Data set [2] deals with T1, human UCH37 isoform 1, co-expressed with NFRKB (human, UniProt Q9Y5K5 1-329).
T1 sequence (looked up): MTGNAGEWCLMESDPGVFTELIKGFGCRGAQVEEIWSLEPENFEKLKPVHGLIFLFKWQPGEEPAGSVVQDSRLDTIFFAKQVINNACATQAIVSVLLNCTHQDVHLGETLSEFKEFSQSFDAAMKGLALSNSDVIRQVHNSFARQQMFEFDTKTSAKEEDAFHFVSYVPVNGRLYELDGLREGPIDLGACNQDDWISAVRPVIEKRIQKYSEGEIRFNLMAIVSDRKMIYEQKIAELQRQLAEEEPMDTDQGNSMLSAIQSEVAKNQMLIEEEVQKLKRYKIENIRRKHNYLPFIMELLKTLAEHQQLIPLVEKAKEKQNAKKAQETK
Nature of the data set: cell-based or functional assay.

Data set [3] addresses T2, human UCH37 (isoform 1), full-length (human, UniProt Q9Y5K5 1-329).
T2 sequence (looked up): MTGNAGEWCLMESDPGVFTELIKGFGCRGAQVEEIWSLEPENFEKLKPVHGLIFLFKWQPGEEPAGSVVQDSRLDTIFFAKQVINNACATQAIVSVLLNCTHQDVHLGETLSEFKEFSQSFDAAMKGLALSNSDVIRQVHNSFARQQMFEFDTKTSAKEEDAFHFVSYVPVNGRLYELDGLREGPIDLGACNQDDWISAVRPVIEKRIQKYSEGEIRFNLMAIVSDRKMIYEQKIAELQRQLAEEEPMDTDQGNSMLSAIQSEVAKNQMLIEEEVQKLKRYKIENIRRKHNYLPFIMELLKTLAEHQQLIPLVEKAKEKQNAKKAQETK
The data set is described as follows: cell-based or functional assay.

Data set [4] addresses T3, human UCH37 isoform 2 (human, UniProt Q9Y5K5 1-329, deleting the codon for E246).
T3 sequence (looked up): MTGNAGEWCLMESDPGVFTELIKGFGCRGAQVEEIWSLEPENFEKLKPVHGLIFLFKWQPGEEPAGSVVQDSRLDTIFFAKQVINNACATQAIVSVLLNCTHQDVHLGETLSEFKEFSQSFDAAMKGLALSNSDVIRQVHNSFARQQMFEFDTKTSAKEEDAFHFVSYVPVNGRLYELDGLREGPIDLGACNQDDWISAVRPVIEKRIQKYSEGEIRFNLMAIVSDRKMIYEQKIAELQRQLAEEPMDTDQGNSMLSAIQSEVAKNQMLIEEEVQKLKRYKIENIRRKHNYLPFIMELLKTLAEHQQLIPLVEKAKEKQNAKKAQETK
Nature of the data set: cell-based or functional assay.

In data set [5] the target is T4, UCH37(M148A,F149A) (human, UniProt Q9Y5K5 1-329, M148A | F149A).
T4 sequence (looked up): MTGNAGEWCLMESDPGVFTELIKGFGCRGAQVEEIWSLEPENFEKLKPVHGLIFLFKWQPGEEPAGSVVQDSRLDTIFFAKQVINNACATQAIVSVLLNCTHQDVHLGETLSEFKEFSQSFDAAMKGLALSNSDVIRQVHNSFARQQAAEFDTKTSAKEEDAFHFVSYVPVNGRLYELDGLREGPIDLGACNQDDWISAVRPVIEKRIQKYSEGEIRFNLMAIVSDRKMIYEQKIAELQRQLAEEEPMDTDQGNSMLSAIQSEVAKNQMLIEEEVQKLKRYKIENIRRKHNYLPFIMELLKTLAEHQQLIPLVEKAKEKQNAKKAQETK
The data set is described as follows: cell-based or functional assay.

In data set [6] the target is human ubiquitin (human, UniProt P0CG48 1-76). The data set is described as follows: cell-based or functional assay.

B1: UCH37(M269E,N291D) (enzyme, human, UniProt Q9Y5K5 1-329, looked up)
chain: MTGNAGEWCLMESDPGVFTELIKGFGCRGAQVEEIWSLEPENFEKLKPVHGLIFLFKWQPGEEPAGSVVQDSRLDTIFFAKQVINNACATQAIVSVLLNCTHQDVHLGETLSEFKEFSQSFDAAMKGLALSNSDVIRQVHNSFARQQMFEFDTKTSAKEEDAFHFVSYVPVNGRLYELDGLREGPIDLGACNQDDWISAVRPVIEKRIQKYSEGEIRFNLMAIVSDRKMIYEQKIAELQRQLAEEEPMDTDQGNSMLSAIQSEVAKNQELIEEEVQKLKRYKIENIRRKHDYLPFIMELLKTLAEHQQLIPLVEKAKEKQNAKKAQETK
Molecule B1 had an equilibrium dissociation constant (Kd) in data set [1] of 49 µM.

B2: NFRKB^39-156 (domain or fragment, human, UniProt Q6P4R8 39-156, looked up)
chain: PEDLLEDPEIFFDVVSLSTWQEVLSDSQREHLQQFLPQFPEDSAEQQNELILALFSGENFRFGNPLHIAQKLFRDGHFNPEVVKYRQLCFKSQYKRYLNSQQQYFHRLLKQILASRSD
With B2, in data set [2], the “kcat of ubiquitin-AMC hydrolysis by the UCH37/NFRKB^39-156 complex” value was determined as 0.25 s⁻¹ and the “kcat/Km of ubiquitin-AMC hydrolysis by the UCH37/NFRKB^39-156 complex” value came out at 0.009 s^−1μM^−1.

B3: NFRKB^1-156 (domain or fragment, human, UniProt Q6P4R8 1-156, looked up)
chain: MDSLDHMLTDPLELGPCGDGHGTRIMEDCLLGGTRVSLPEDLLEDPEIFFDVVSLSTWQEVLSDSQREHLQQFLPQFPEDSAEQQNELILALFSGENFRFGNPLHIAQKLFRDGHFNPEVVKYRQLCFKSQYKRYLNSQQQYFHRLLKQILASRSD
Take B3: in data set [2], the “kcat of ubiquitin-AMC hydrolysis by the UCH37/NFRKB^1-156 complex” value came out at 0.1 s⁻¹ and the “kcat/Km of ubiquitin-AMC hydrolysis by the UCH37/NFRKB^1-156 complex” value stood at 0.006 s^−1μM^−1.

B4: NFRKB^1-156(^97GSGS^100) (domain or fragment, human, UniProt Q6P4R8 1-156, looked up)
chain: MDSLDHMLTDPLELGPCGDGHGTRIMEDCLLGGTRVSLPEDLLEDPEIFFDVVSLSTWQEVLSDSQREHLQQFLPQFPEDSAEQQNELILALFSGEGSGSGNPLHIAQKLFRDGHFNPEVVKYRQLCFKSQYKRYLNSQQQYFHRLLKQILASRSD
As to B4, in data set [2], the “kcat of ubiquitin-AMC hydrolysis by the UCH37/NFRKB^1-156(^97GSGS^100) complex” value is 5.94 s⁻¹.

B5: human RPN13^285-407 (domain or fragment)
chain: GSWTQVDLASVLTPEIMAPILANADVQERLLPYLPSGESLPQTADEIQNTLTSPQFQQALGMFSAALASGQLGPLMCQFGLPAEAVEAANKGDVEAFAKAMQNNAKPEQKEGDTKDKKDEEEDMSLD
As to B5, in data set [3], the “kcat of ubiquitin-AMC hydrolysis by the UCH37/RPN13^285-407 complex” value worked out at 5 s⁻¹ and the “kcat/Km of ubiquitin-AMC hydrolysis by the UCH37/RPN13^285-407 complex” value worked out at 1.6 s^−1μM^−1. For the same molecule, in data set [4], the “kcat of ubiquitin-AMC hydrolysis by the UCH37(isoform2)/RPN13^285-407 complex” value was determined as 4.7 s⁻¹ and the “kcat/Km of ubiquitin-AMC hydrolysis by the UCH37(isoform2)/RPN13^285-407 complex” value came to 1.4 s^−1μM^−1. Besides, the “kcat of ubiquitin-AMC hydrolysis by the UCH37(M148A,F149A)/RPN13^285-407 complex” value in data set [5] stood at 4.7 s⁻¹.

B6: RPN13(Q337A,Q338A)^285-407 (domain or fragment, human)
chain: GSWTQVDLASVLTPEIMAPILANADVQERLLPYLPSGESLPQTADEIQNTLTSPQFAAALGMFSAALASGQLGPLMCQFGLPAEAVEAANKGDVEAFAKAMQNNAKPEQKEGDTKDKKDEEEDMSLD
Regarding B6, the “kcat of ubiquitin-AMC hydrolysis by the UCH37/RPN13(Q337A,Q338A)^285-407 complex” value in data set [6] came out at 4.7 s⁻¹.

B7: NFRKB^1-117 (domain or fragment, human, UniProt Q6P4R8 1-117, looked up)
chain: MDSLDHMLTDPLELGPCGDGHGTRIMEDCLLGGTRVSLPEDLLEDPEIFFDVVSLSTWQEVLSDSQREHLQQFLPQFPEDSAEQQNELILALFSGENFRFGNPLHIAQKLFRDGHFN
On to B7, for which, in data set [2], the “kcat of ubiquitin-AMC hydrolysis by the UCH37/NFRKB^1-117 complex” value came to 0.15 s⁻¹ and the “kcat/Km of ubiquitin-AMC hydrolysis by the UCH37/NFRKB^1-117 complex” value was 0.005 s^−1μM^−1.
